In experiment [1] the target is T1, CD137 (human, UniProt Q07011 24-186).
T1 construct: In the reporter assay it is whole, on GS-H2-huCD137 cells; also called 4-1BB; huCD137
As to the kind of experiment: CD137 binding, FCM or ELISA. In general terms: An ELISA detects its analyte on a solid surface through an enzyme-linked reagent.

Another experiment deals with CD3 (human). Kind of experiment: CD3 binding, as described in Example 2 (ELISA or FCM).
The target in another experiment is T2, B7H3 (human, UniProt Q5ZPR3 29-466, limits assumed).
T2 construct: Tumor associated antigen; also called huB7H3
T2 sequence (looked up): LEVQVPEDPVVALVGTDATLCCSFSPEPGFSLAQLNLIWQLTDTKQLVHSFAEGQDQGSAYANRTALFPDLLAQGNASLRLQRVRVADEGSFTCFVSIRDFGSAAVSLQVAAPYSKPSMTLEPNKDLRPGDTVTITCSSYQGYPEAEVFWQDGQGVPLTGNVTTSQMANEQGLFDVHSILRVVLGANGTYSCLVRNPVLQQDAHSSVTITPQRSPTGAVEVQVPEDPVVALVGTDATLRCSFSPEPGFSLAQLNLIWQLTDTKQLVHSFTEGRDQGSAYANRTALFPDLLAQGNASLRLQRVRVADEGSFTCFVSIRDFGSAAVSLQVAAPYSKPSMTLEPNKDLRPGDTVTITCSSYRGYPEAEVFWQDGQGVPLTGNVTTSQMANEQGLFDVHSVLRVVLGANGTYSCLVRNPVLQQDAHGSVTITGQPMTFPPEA
As to the kind of experiment: FCM or ELISA.

For experiment [2], the target named is T3, CD137 (human, UniProt Q07011 24-186).
T3 construct: Reporter assays used GS-H2-huCD137 cells expressing human CD137; also called 4-1BB/CD137; huCD137
As to the kind of experiment: CD137 binding by FCM or ELISA.

Broadly, the EC50 is the concentration needed to bring the measured effect to its halfway point.

CD3 (human), sequence (chain, as listed by the source): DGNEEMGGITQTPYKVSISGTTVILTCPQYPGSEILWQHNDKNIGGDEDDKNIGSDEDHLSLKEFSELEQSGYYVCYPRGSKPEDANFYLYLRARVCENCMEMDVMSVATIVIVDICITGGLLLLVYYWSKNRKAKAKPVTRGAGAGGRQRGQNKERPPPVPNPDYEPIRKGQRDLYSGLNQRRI

B1: Ly2326 (bispecific antibody, human IgG1, kappa)
chain 1: QVQLQQSGAELVRPGSSVKISCKASGYAFSSYWMNWVKQRPGQGLEWIGQIWPGDGDTNYNGKFKGKATLTADESSSTAYMQLSSLASEDSAVYFCARRETTTVGRYYYAMDYWGQGTTVTVSSASTKGPSVFPLAPSSKSTSGGTAALGCLVKDYFPEPVTVSWNSGALTSGVHTFPAVLQSSGLYSLSSVVTVPSSSLGTQTYICNVNHKPSNTKVDKKVEPKSCDKTHTCPPCPAPEAAGPSVFLFPPKPKDTLMISRTPEVTCVVVDVSHEDPEVKFNWYVDGVEVHNAKTKPREEQYNSTYRVVSVLTVLHQDWLNGKEYKCKVSNKALPAPIEKTISKAKGQPREPQVYTLPPSREEMTKNQVSLWCLVKGFYPSDIAVEWESNGQPENNYKTTPPVLDSDGSFFLYSKLTVDKSRWQQGNVFSCSVMHEALHNHYTQKSLSLSPGGGGGSGGGGSGGGGSGGGGSQVQLVQSGAEVKKPGASVKVSCKASGYTFAGFEMHWVRQAPGQGLEWMGAIDPKTGGTDYNQKFKDRVTMTRDTSISTAYMELSRLRSDDTAVYYCARDLGYFDVWGQGTLVTVSS
chain 2: QVQLQQSGAELVRPGSSVKISCKASGYAFSSYWMNWVKQRPGQGLEWIGQIWPGDGDTNYNGKFKGKATLTADESSSTAYMQLSSLASEDSAVYFCARRETTTVGRYYYAMDYWGQGTTVTVSSASTKGPSVFPLAPSSKSTSGGTAALGCLVKDYFPEPVTVSWNSGALTSGVHTFPAVLQSSGLYSLSSVVTVPSSSLGTQTYICNVNHKPSNTKVDKKVEPKSCDKTHTCPPCPAPEAAGPSVFLFPPKPKDTLMISRTPEVTCVVVDVSHEDPEVKFNWYVDGVEVHNAKTKPREEQYNSTYRVVSVLTVLHQDWLNGKEYKCKVSNKALPAPIEKTISKAKGQPREPQVYTLPPSREEMTKNQVSLSCAVKGFYPSDIAVEWESNGQPENNYKTTPPVLDSDGSFFLVSKLTVDKSRWQQGNVFSCSVMHEALHNRFTQKSLSLSPGGGGGSGGGGSGGGGSGGGGSDIQMTQSPSSLSASVGDRVTITCRASQDIRSNLNWYQQKPGGAVKLLIYYTSRLHSGVPSRFSGSGSGTDYTLTISSLQPEDFATYFCQQSEKLPRTFGGGTKVEIR
light: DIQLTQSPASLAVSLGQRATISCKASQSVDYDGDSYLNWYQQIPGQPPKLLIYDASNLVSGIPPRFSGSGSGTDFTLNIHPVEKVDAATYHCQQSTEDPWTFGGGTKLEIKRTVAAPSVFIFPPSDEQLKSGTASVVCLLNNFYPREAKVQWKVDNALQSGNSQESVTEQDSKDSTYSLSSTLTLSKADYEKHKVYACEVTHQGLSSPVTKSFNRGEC
notes: CD19 Fabs, terminal CD137 Fv
With B1, in the experiment with CD137 [1], the binding result is given as “binds”.

B2: Ly1966 (other)
chain 1: QVQLQQSGAELVRPGSSVKISCKASGYAFSSYWMNWVKQRPGQGLEWIGQIWPGDGDTNYNGKFKGKATLTADESSSTAYMQLSSLASEDSAVYFCARRETTTVGRYYYAMDYWGQGTTVTVSSASTKGPSVFPLAPSSKSTSGGTAALGCLVKDYFPEPVTVSWNSGALTSGVHTFPAVLQSSGLYSLSSVVTVPSSSLGTQTYICNVNHKPSNTKVDKKVEPKSCGGGGSGGGGSGGGGSGGGGSEVQLVESGGGLVQPGGSLRLSCAASGFTFSTYAMNWVRQAPGKGLEWVGRIRSKYNNYATYYADSVKGRFTISRDDSKNSLYLQMNSLKTEDTAVYYCVRHGNFGNSYVSWFAYWGQGTLVTVSSGGGGSDKTHTCPPCPAPEAAGPSVFLFPPKPKDTLMISRTPEVTCVVVDVSHEDPEVKFNWYVDGVEVHNAKTKPREEQYNSTYRVVSVLTVLHQDWLNGKEYKCKVSNKALPAPIEKTISKAKGQPREPQVYTLPPSREEMTKNQVSLWCLVKGFYPSDIAVEWESNGQPENNYKTTPPVLDSDGSFFLYSKLTVDKSRWQQGNVFSCSVMHEALHNHYTQKSLSLSPGGGGGSGGGGSGGGGSGGGGSQVQLVQSGAEVKKPGASVKVSCKASGYTFAGFEMHWVRQAPGQGLEWMGAIDPKTGGTDYNQKFKDRVTMTRDTSISTAYMELSRLRSDDTAVYYCARDLGYFDVWGQGTLVTVSS
chain 2: QVQLQQSGAELVRPGSSVKISCKASGYAFSSYWMNWVKQRPGQGLEWIGQIWPGDGDTNYNGKFKGKATLTADESSSTAYMQLSSLASEDSAVYFCARRETTTVGRYYYAMDYWGQGTTVTVSSASTKGPSVFPLAPSSKSTSGGTAALGCLVKDYFPEPVTVSWNSGALTSGVHTFPAVLQSSGLYSLSSVVTVPSSSLGTQTYICNVNHKPSNTKVDKKVEPKSCGGGGSGGGGSGGGGSGGGGSQAVVTQEPSLTVSPGGTVTLTCRSSTGAVTTSNYANWVQQKPGQAPRGLIGGTNKRAPWTPARFSGSLLGGKAALTITGAQAEDEADYYCALWYSNLWVFGGGTKLTVLGGGGSDKTHTCPPCPAPEAAGPSVFLFPPKPKDTLMISRTPEVTCVVVDVSHEDPEVKFNWYVDGVEVHNAKTKPREEQYNSTYRVVSVLTVLHQDWLNGKEYKCKVSNKALPAPIEKTISKAKGQPREPQVYTLPPSREEMTKNQVSLSCAVKGFYPSDIAVEWESNGQPENNYKTTPPVLDSDGSFFLVSKLTVDKSRWQQGNVFSCSVMHEALHNRFTQKSLSLSPGGGGGSGGGGSGGGGSGGGGSDIQMTQSPSSLSASVGDRVTITCRASQDIRSNLNWYQQKPGGAVKLLIYYTSRLHSGVPSRFSGSGSGTDYTLTISSLQPEDFATYFCQQSEKLPRTFGGGTKVEIR
light: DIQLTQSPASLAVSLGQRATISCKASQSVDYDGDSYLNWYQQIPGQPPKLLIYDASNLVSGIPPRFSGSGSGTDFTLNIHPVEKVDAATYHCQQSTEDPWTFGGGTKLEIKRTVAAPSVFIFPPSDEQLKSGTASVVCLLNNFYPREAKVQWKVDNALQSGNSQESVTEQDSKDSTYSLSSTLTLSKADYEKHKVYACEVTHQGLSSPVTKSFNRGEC
notes: Tri-specific antibody: CD19 Fabs, central CD3 Fv, terminal CD137 Fv
As for B2, the binding result with CD137 [1] is given as “binds”. The same molecule gave a concentration for a half-maximal effect (EC50) with CD3 of 0.348 µg/mL.

B3: Ly1963 (other)
chain 1: QVQLVQSGAEVKKPGASVKVSCKASGYTFTSYVMHWVRQKPGQGLEWIGYINPYNEGTESTDKFKGRATMTSDKSTSTVYMELSSLRSEDTAVYYCASIYYGYEGTYFGVWGQGTLVTVSSASTKGPSVFPLAPSSKSTSGGTAALGCLVKDYFPEPVTVSWNSGALTSGVHTFPAVLQSSGLYSLSSVVTVPSSSLGTQTYICNVNHKPSNTKVDKKVEPKSCGGGGSGGGGSGGGGSGGGGSEVQLVESGGGLVQPGGSLRLSCAASGFTFSTYAMNWVRQAPGKGLEWVGRIRSKYNNYATYYADSVKGRFTISRDDSKNSLYLQMNSLKTEDTAVYYCVRHGNFGNSYVSWFAYWGQGTLVTVSSGGGGSDKTHTCPPCPAPEAAGPSVFLFPPKPKDTLMISRTPEVTCVVVDVSHEDPEVKFNWYVDGVEVHNAKTKPREEQYNSTYRVVSVLTVLHQDWLNGKEYKCKVSNKALPAPIEKTISKAKGQPREPQVYTLPPSREEMTKNQVSLWCLVKGFYPSDIAVEWESNGQPENNYKTTPPVLDSDGSFFLYSKLTVDKSRWQQGNVFSCSVMHEALHNHYTQKSLSLSPGGGGGSGGGGSGGGGSGGGGSQVQLVQSGAEVKKPGASVKVSCKASGYTFAGFEMHWVRQAPGQGLEWMGAIDPKTGGTDYNQKFKDRVTMTRDTSISTAYMELSRLRSDDTAVYYCARDLGYFDVWGQGTLVTVSS
chain 2: QVQLVQSGAEVKKPGASVKVSCKASGYTFTSYVMHWVRQKPGQGLEWIGYINPYNEGTESTDKFKGRATMTSDKSTSTVYMELSSLRSEDTAVYYCASIYYGYEGTYFGVWGQGTLVTVSSASTKGPSVFPLAPSSKSTSGGTAALGCLVKDYFPEPVTVSWNSGALTSGVHTFPAVLQSSGLYSLSSVVTVPSSSLGTQTYICNVNHKPSNTKVDKKVEPKSCGGGGSGGGGSGGGGSGGGGSQAVVTQEPSLTVSPGGTVTLTCRSSTGAVTTSNYANWVQQKPGQAPRGLIGGTNKRAPWTPARFSGSLLGGKAALTITGAQAEDEADYYCALWYSNLWVFGGGTKLTVLGGGGSDKTHTCPPCPAPEAAGPSVFLFPPKPKDTLMISRTPEVTCVVVDVSHEDPEVKFNWYVDGVEVHNAKTKPREEQYNSTYRVVSVLTVLHQDWLNGKEYKCKVSNKALPAPIEKTISKAKGQPREPQVYTLPPSREEMTKNQVSLSCAVKGFYPSDIAVEWESNGQPENNYKTTPPVLDSDGSFFLVSKLTVDKSRWQQGNVFSCSVMHEALHNHYTQKSLSLSPGGGGGSGGGGSGGGGSGGGGSDIQMTQSPSSLSASVGDRVTITCRASQDIRSNLNWYQQKPGGAVKLLIYYTSRLHSGVPSRFSGSGSGTDYTLTISSLQPEDFATYFCQQSEKLPRTFGGGTKVEIR
light: EIVLTQSPATLSLSPGERATLSCRASSSVSYMHWYQQKPGQAPRPWIYATSNLASGIPARFSGSRSGTDYTLTISSLEPEDFAVYYCQQWSSNTLTFGGGTKVEIKRTVAAPSVFIFPPSDEQLKSGTASVVCLLNNFYPREAKVQWKVDNALQSGNSQESVTEQDSKDSTYSLSSTLTLSKADYEKHKVYACEVTHQGLSSPVTKSFNRGEC
On to B3, for which the binding result with B7H3 and with CD137 [2] was “binds” throughout.

B4: Ly2122 (bispecific antibody, human IgG1, kappa)
chain 1: QVQLVQSGAEVKKPGASVKVSCKASGYTFTSYVMHWVRQKPGQGLEWIGYINPYNEGTESTDKFKGRATMTSDKSTSTVYMELSSLRSEDTAVYYCASIYYGYEGTYFGVWGQGTLVTVSSASTKGPSVFPLAPSSKSTSGGTAALGCLVKDYFPEPVTVSWNSGALTSGVHTFPAVLQSSGLYSLSSVVTVPSSSLGTQTYICNVNHKPSNTKVDKKVEPKSCDKTHTCPPCPAPEAAGPSVFLFPPKPKDTLMISRTPEVTCVVVDVSHEDPEVKFNWYVDGVEVHNAKTKPREEQYNSTYRVVSVLTVLHQDWLNGKEYKCKVSNKALPAPIEKTISKAKGQPREPQVYTLPPSREEMTKNQVSLWCLVKGFYPSDIAVEWESNGQPENNYKTTPPVLDSDGSFFLYSKLTVDKSRWQQGNVFSCSVMHEALHNHYTQKSLSLSPGGGGGSGGGGSGGGGSGGGGSQVQLVQSGAEVKKPGASVKVSCKASGYTFAGFEMHWVRQAPGQGLEWMGAIDPKTGGTDYNQKFKDRVTMTRDTSISTAYMELSRLRSDDTAVYYCARDLGYFDVWGQGTLVTVSS
chain 2: QVQLVQSGAEVKKPGASVKVSCKASGYTFTSYVMHWVRQKPGQGLEWIGYINPYNEGTESTDKFKGRATMTSDKSTSTVYMELSSLRSEDTAVYYCASIYYGYEGTYFGVWGQGTLVTVSSASTKGPSVFPLAPSSKSTSGGTAALGCLVKDYFPEPVTVSWNSGALTSGVHTFPAVLQSSGLYSLSSVVTVPSSSLGTQTYICNVNHKPSNTKVDKKVEPKSCDKTHTCPPCPAPEAAGPSVFLFPPKPKDTLMISRTPEVTCVVVDVSHEDPEVKFNWYVDGVEVHNAKTKPREEQYNSTYRVVSVLTVLHQDWLNGKEYKCKVSNKALPAPIEKTISKAKGQPREPQVYTLPPSREEMTKNQVSLSCAVKGFYPSDIAVEWESNGQPENNYKTTPPVLDSDGSFFLVSKLTVDKSRWQQGNVFSCSVMHEALHNRFTQKSLSLSPGGGGGSGGGGSGGGGSGGGGSDIQMTQSPSSLSASVGDRVTITCRASQDIRSNLNWYQQKPGGAVKLLIYYTSRLHSGVPSRFSGSGSGTDYTLTISSLQPEDFATYFCQQSEKLPRTFGGGTKVEIR
light: EIVLTQSPATLSLSPGERATLSCRASSSVSYMHWYQQKPGQAPRPWIYATSNLASGIPARFSGSRSGTDYTLTISSLEPEDFAVYYCQQWSSNTLTFGGGTKVEIKRTVAAPSVFIFPPSDEQLKSGTASVVCLLNNFYPREAKVQWKVDNALQSGNSQESVTEQDSKDSTYSLSSTLTLSKADYEKHKVYACEVTHQGLSSPVTKSFNRGEC
notes: B7H3/CD137: two B7H3 Fabs, terminal CD137 Fv
As to B4, the binding result with B7H3 and with CD137 [2] was “binds” each time.
